The values below come from article PMC9784774 (2022).

This experiment addresses T1, recombinant gH/gL/UL128/UL130/UL131A pentamer (wild type) (human cytomegalovirus | human …).
T1 chain 1: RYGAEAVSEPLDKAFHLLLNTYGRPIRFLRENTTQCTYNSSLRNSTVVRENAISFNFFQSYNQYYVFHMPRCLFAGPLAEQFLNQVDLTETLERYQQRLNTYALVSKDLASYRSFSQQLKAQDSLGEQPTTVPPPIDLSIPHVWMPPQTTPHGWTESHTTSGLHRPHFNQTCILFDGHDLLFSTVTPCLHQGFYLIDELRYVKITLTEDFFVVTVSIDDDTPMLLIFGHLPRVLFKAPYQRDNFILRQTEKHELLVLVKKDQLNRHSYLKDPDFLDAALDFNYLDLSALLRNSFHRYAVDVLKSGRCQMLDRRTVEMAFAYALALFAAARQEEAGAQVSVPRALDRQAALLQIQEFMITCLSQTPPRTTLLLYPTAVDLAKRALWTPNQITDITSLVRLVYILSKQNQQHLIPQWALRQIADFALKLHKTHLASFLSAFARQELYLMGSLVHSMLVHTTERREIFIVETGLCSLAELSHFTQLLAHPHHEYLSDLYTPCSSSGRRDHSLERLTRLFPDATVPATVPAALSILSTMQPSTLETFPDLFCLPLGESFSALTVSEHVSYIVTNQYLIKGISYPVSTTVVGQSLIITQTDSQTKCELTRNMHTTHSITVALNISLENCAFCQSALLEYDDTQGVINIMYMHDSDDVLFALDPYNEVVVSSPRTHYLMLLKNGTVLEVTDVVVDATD
T1 chain 2: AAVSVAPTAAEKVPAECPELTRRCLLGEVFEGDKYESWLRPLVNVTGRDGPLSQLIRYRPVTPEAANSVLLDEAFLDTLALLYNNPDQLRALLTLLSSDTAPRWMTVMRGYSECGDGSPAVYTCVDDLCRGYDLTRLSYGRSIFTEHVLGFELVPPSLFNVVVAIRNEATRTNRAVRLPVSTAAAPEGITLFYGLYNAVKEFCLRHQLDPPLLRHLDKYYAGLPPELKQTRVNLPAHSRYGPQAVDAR
T1 chain 3: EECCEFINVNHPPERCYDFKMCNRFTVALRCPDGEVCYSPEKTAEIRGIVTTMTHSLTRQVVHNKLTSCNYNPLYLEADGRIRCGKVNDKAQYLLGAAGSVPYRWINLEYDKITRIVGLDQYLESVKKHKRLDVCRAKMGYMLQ
T1 chain 4: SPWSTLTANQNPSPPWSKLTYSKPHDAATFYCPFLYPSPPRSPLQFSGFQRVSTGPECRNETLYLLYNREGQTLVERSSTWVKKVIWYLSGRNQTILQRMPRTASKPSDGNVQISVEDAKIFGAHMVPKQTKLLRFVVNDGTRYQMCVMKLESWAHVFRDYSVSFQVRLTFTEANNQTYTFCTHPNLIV
T1 chain 5: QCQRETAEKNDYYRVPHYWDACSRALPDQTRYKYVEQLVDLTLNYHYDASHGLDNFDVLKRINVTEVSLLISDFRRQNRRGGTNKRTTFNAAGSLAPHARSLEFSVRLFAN
Put plainly: SPR.

B1: MAb 9I6 (antibody, V domains shown)
VH: EVQLVQSGAEVKKPGESLKISCRESGDTFPAYWIAWVRQMPGKGLEWMGIIYPIDSETTYSPSFQGQVTISADKSINTAYLQWSSLKASDSAIYYCARGTSTGLREAFHIWGQGTMVTVSS
VL: DVVMTQSPLSLAVTLGQPAYISCRSSQSLGYSDGNTYLNWFQQRPGQSPRRLIYEVSNRDSGVPDRFSGSGSGTDFTLKISRVEAEDVGTYYCMQGTHWPPMCSFGQGTKLEIK
B1: the off-rate constant (koff) came out at 0.000151 s⁻¹.
